# Reference: the nanobody polyreactivity screen of Harvey et al. (2022)
# Assay: yeast display, Sf9 membrane polyspecificity reagent, FACS + sequencing; frameworks hold sequencing errors
# In short: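 After 36–48 hours of galactose induction, yeast (Saccharomyces cerevisiae BJ5465) displaying a synthetic nanobody library were stained at 4 °C for 1 hour with 10% biotinylated, detergent-solubilized Sf9 membrane reagent. Streptavidin microbeads enriched the stained cells before FACS sorting into low and high (top ~1%) gates on anti-HA and streptavidin fluorescence. Each clone's polyreactivity label reflects its gate of origin.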
sequence,measurement,value
QVQLVESGGGLVQAGGSLRLSCAASGFTFRYYAMGWYRQAPGKEREFVAAISRGGGTTYYADSVKGRFTISRDNAKNTVYLQMNSLKPEDTAVYYCATRALYWRYGYDYWGQGTQVTVSS,polyreactivity (PSR sort gate),high polyreactivity
QVQLVESGGGLVQAGGSLRLSCAASGSTLVKYAMGWYRQAPGKERELVARITLNGGRTYYADSVKGRFTISRDNAKNTVYLQMNSLKPEDTAVYYCAKSLPHSTSRDYWGQGTQVTVSS,polyreactivity (PSR sort gate),low polyreactivity
QVQLVESGGGLVQAGGSLRLICAASGIIFGIYDMGWYRQAPGKERELVAAIRRSGGSTYYADSVKGRFTISRDNAKNTVYLQMNSLKPEDTAVYYCATDAWYYSQTNHDYWGQGTQVTVSS,polyreactivity (PSR sort gate),low polyreactivity
QVQLVESGGGLVQAGGSLRLSCAASGRIYLNAMGWYRQAPGKERELVAAISSRGASTYYADSVKGRFTISRDNAKNTVYLQMKSLKPEDTAVFYCAARLRNIYYFRMGYWGQGTQVTVSS,polyreactivity (PSR sort gate),high polyreactivity
QVQLVESGGGLVQAGGSLRLSCAAYGSTFGHYAMGWDRQAPGKERELVAAISSSGGSTYYADSVKGRFTISRDNAKNTVYLQMNSLKPEDTAVYYCAARYYHYSYAFGYWGQGTQVTVSS,polyreactivity (PSR sort gate),high polyreactivity
QVQLVESGGGLVQAGGSLRLSCAASGGTFGPYAMGWYRQAPGKERELVATIRSSGGRTYYADSVKGRFTISRDNAKNTVYFQMNSLKPEDTAVYYCAATEFRYFEGGAYFEGYYWGQGTQVTVSS,polyreactivity (PSR sort gate),low polyreactivity
QVQLEESGGGLVQAGGSLRLSCAASGIIFQRNDMGLYRQAPGKERELVANIRDGGITYADSVKGRFTISRDNAKNTVYLQMNSLKPEDTAVYYCARDDTSPGYCDQSSNAAYYYWGQGTQVTVSS,polyreactivity (PSR sort gate),low polyreactivity
QVQLVESGGGLVQAGGSLRLSCAASGFIFDVYAMGWYRQAPGNERELVATISSGDSTYYADSVKGRFTISRDNAKNTVYLQMNSLKPEDTAVYYCNTTEHKYVSSFEYGYWGQGTQVTVSS,polyreactivity (PSR sort gate),low polyreactivity
QVQLVESGGGLVQAGGSLRLSCAASGRTFFYNTMGWYRQAPGKERELVAAITSSGGRTSYADSVKGRFTISRDNAKNTVYLQMNSLKPEDTAVYYCAALYSYYSLYDDYDYWGQGTQVTVSS,polyreactivity (PSR sort gate),high polyreactivity
QVHLVESGGGLVQAGGSLRLSFAASGLIFFVYAMGWYRQAPGIERELVAGIRSSGGSTYYADSVKGRFTISRDNAKNTVYLQMNSLKPEDTAVYYCAARYRYGWAYRKGGDYWGQGTKVTVSS,polyreactivity (PSR sort gate),high polyreactivity
QVQLVESGGGLVQAGGSLRLSCAASGRISSLYAMGWYRQAPGKERELVAGITWRGGSTYYADSVKGRFTISRDNAKNTVYLQMNSLKPEDTAVYYCNAVWVQQVVGDGKRTWNFWYDYWGQGTQVTVSS,polyreactivity (PSR sort gate),low polyreactivity
QVQLVEAGGGLVQAGGSLRLSCAASGRISYTYAMGWYRQAPGNERELVAAITDGGSTTYADSVKGRFTISRDNAKNTVYLQMNSLKPEDTAVYYCNADTDSAKSPAYYYWGQGTQVTVSS,polyreactivity (PSR sort gate),low polyreactivity
QVQLVESGGGLVQAGGSLRLSCAASGFTFGYNAMGRYRQAPGKERELVAAITSGGSTNYADSVKGRFTISRDNAKNTVYLQMNSLKPEDNAVYYCATGVRPWRKKPVEFYHWGQGTQVTVSS,polyreactivity (PSR sort gate),low polyreactivity
QVQLVESGGGLVQAGGSLRLSCAASGSTFSRYAMGWYRQAPGKEMELVAAITGSGGNTYYADSVKGRFTISRDNAKNTVYLQMNSLKPEDTAVYYCAAEDYVGWYNFEYWGQGTQVTVSS,polyreactivity (PSR sort gate),high polyreactivity
QVQLVESGGGLVQAGGSLRISCAASGNTFDYYTMGWYRQAPGKERDLVASIDWSTTTTYYADSVKGRFTISRDNAKTTVYLQMKSLKPEDTAVYYCNTVYDFYHLGLYSGFRYHYWGQGTQVTVSS,polyreactivity (PSR sort gate),low polyreactivity
QVQLVESGGGLVQAGGSLRLSCAASGSNFSFYAMGWYRQAPGKERELVAAISWSGGTTYYADSVKGRFTISRDNAKNTVYLQMNSLKPEDTAVYYCAASEYDGYGGYYWGQGSQVTVSS,polyreactivity (PSR sort gate),low polyreactivity
QVQLVESGGGLVQAGGSLRLSCAASGRTFGRNVMGWYRQAPGKERELVAAISRSGGSTYYADSVKGRFTISRDNAKNTVYLQMNSLKPEDTAVYYCAAKYYRDRDWGQGTQVTVSS,polyreactivity (PSR sort gate),high polyreactivity
QVQLVDSGGGLVQAGGSLRLSCAASGRTLWYYTMGWYRQAPGKERELVADITRGTSTNYADSVKVRFTISRDNAKNTVYLQMNSLKPEDTAVYYCNRAHGRSRYSRDYDSWGQGTQVTVSS,polyreactivity (PSR sort gate),low polyreactivity
QVQLVESGGGLVQAGGSLRLSCAASGSTFCYYDMGWYRQAPGKERELVATISSGGGTNYAASVKGRFTISRDNAKNTVYLQMNSLKPEDTAVYYCAAQYVIRITFYATYWEDYWGQGTQVTVSS,polyreactivity (PSR sort gate),low polyreactivity
QVQLVESGGGLLQAGGSLRLSCAASGRTFGHYAMGWYRQAPGKEREFVAAITRGGGRTYYADSVKGRFTISRDNAKNTVYLQMNSLKPEDTAVYYCARKQYWGYDYWGQGTQVTVSS,polyreactivity (PSR sort gate),low polyreactivity
QVQLVESGGGLGQAAGSLRLSCAASGHIFGPYAMGWYSQAPGKERELVAAITSGGTTYYADSVKGRFTISRDNAKNTVYLQMNSLKPEDTAVYYCAAKFELTRYSSPFFWYDSWGQGTKVTVSS,polyreactivity (PSR sort gate),high polyreactivity
QVQLVESGGGLVQAGGSLRLSCAASGSTFDSNAMGWYRQAPGKERELVAGITIGGSTNYADSVKGRFTISRDNAKNTVFLQMNSLKPEDTAVYYCNVVKYVYIYSYWEYYYWGQGTQVTVSS,polyreactivity (PSR sort gate),low polyreactivity
QVQLVESGGGLVQAGGSLRLSCAASGSILLRNAMGWYRQAPGKERELVAAISRDGGSTYADSVKGRFTISRDNAKNTVYLQMNSLKPEDTAVYYCAKRSYWYDYWGQGTQVTVSS,polyreactivity (PSR sort gate),high polyreactivity
QVQRVESGGGLVQAGGRLRLTCAASARIIRWYAMGWNRQAPGKERELVAAISGSGGSTYYADSVKGRFTISRDNAKNTVYLQMNSLKPEDTAVYYCAKDRDPVRAHDCWGQGTQVTVSS,polyreactivity (PSR sort gate),high polyreactivity
QVQRVESGGGLVQAGGSLRLTCAASGYTSLWYGMGWSRQAPGKERDLVAAISSSGNTNYADSVKGRFTISRDNAKNTVYLQMNSLKPEDTAVYYCAVELKQVTPGLGYITLDYWGQGTQVTVSS,polyreactivity (PSR sort gate),low polyreactivity
QVQLVESGGGLVQAGGSLRLSCAASGFIFGRYAMVWYRQAPGKERHFVASISWSGGSTHYADSVKGRFTISREKAKNTVYLHMNSLKPVDTAVYYCARGFPPYRVTHMNYWGQGTLVTVSS,polyreactivity (PSR sort gate),high polyreactivity
QVQLVESGGGLVQAGGSLRLSCAASGSIFRAYAMGWYRQAPGKERELVADISRSGGSTYYADSVKGRFTISRDNAKNTVYLQMNSLKPEDTAVYYCAAVFYLYSNLYGEYDYWGQGTQVTVSS,polyreactivity (PSR sort gate),low polyreactivity
QVQLVESGGCLVQAGGSLRLSCAASAFIFVGNDMGLYRQAPGKEREFVAAISSGGTTNYADSVKGRFTISRDNAKNTVYLQMNSLKPEDTAVYYCGADYDYRQGYDSVHLDYWVQGTQVTVSS,polyreactivity (PSR sort gate),low polyreactivity
QVQLVESGGGLVQAGGSLRLSCAASGRIFYRYAMGWYRQAPGKEREFVAAISGTGGSTYYADSVKGRFTISRDNAKNTVYLQMNSLKPEDTAVYYCAASVVSRPTYYAYYYWGQGTQVTVSS,polyreactivity (PSR sort gate),high polyreactivity
QVQLVESGGGLVQAGGSLRLICAASGRIFGYYAMGWYRQAPGKERELVAAIDGSDGTTYYADSVKGRFTISRDNAKNTVYFHMNSLKPEDTAVYYCAKDNSLPDYDYWGQGTQVTVSS,polyreactivity (PSR sort gate),low polyreactivity
QDQHVESAGGLVQAGGSLRLSCAASGRIFTINARGWYRQAPGKERELVAGISGRSGGTYYADSVKGRFTISRDNAKNTVYLEMNSLKPEDTAVYYCAGDDWYSTYFEFNYWGQGTQVTVSS,polyreactivity (PSR sort gate),low polyreactivity
QVQLVESGGGLVQAGGSLRLSCAASGRIFGYYAMGWYRQAPGKEREFVAGITQRTDSTYYADSVKGRFTISRDNAKNTVYLQMKSLKPEDTAVYYCAARGYGGYHWGYYWGQGTQVTVSS,polyreactivity (PSR sort gate),high polyreactivity
QVQLVESGGGLVQAGGSLRLSCAASGSTFTWYTMGWYRQAPGKERELVAAISSSGGSTYYADSVKGRFTISRDNAKNTVYLQMNSLKPEDTAVYYCARRFPSPLYTRYDYWGQGTQVTVSS,polyreactivity (PSR sort gate),high polyreactivity
QVQLVESGGGLVQAGGSLRLSCAASGSTFFPYAMGWYRQAPGKERELVAAIRWSGGRTYYADSVKGRFTISRDNAKNTVYLQMNRLKPEDTAVYYCNAGRYKYTDDYWGQGTQVTVSS,polyreactivity (PSR sort gate),high polyreactivity
QVQLVESGGGLVQAGGSLRISCAASGVIFGTYAMRSYRQAPGKERELVAAITSGGTTIYADSVKGRFTISRDNAKNTVYLQMNSLKPEDTAVYYCAARRLYVGYGYDYWGQGTQVTVSS,polyreactivity (PSR sort gate),high polyreactivity
QVQLVESGGGLVQAGGSLRLSCAASGFIFYPYAMGWYRQAPGKVRELVAVITSGGRTYYADSVKGRFTISRDNAKNTVYLQMNSLKAEDTAVYYCAARYGRIHWKANWPEYGYWGQGTQVTVSS,polyreactivity (PSR sort gate),low polyreactivity
QVQLVESGGGLVQAGGSLRLSCAASGFTFRDYAMGWYRPAPGKERELVAAITRSGGRTYYADSVKGRFTISRDNAKNTVYLQMNSLKPEDTAVYYCAAQLPYYGYDYWGQGTQVTVSS,polyreactivity (PSR sort gate),low polyreactivity
QVQLVESGGGLVQAGGSLRLTCAASGSIFSTNAMGWYRQAPGKERELVATITSGGRTYYADSVKGRFTISRDNAKNTVYLQMNSLKPEDTAVYYCARVPPKYRWGRRLVYVHVDYWGQGTQVTVSS,polyreactivity (PSR sort gate),low polyreactivity
QVQLVESGGGLVQAGGSLRLSCSASGFTFKRYAKGLYRQAHGKERELVASISSSGGRTYYADSVKGRFTISRDNAKNTVYLQMNSLKPEDTAVYYCSASDWWGYYFWGQGTQVTVSS,polyreactivity (PSR sort gate),high polyreactivity
QVQLVESWGGLVQAGGSLRLSSPASGFTFFYYAMGWYRPAPGKERELVAAITSGGSTKNADSVKGRFTISRDNAKNSVYLQMNSLKPEDTAVYYCAARVRISGSPRILYNYWGQGTQVTVSS,polyreactivity (PSR sort gate),high polyreactivity
QVQLVESGGGLVQAGGSLRLSCAAYGSTFRYNPLGWYRQAPGKETELVAANTSGGGTNSADSVKGRFTISRDNAKNTVYLQMNSLKPEDTAVYYCAAPWGLGSELLKRDYWGQGTQVTVSS,polyreactivity (PSR sort gate),low polyreactivity
QVQLVESGGGLDQARGSLRLSCAASGYTFYRNAMGWYRQAPGKVRELVAAIRDDGSTYYADSVKGRFTISRDNAKNTVYLHMNSLKPADTAVYYCNRDYPYIWHKGARYWHDNDYWGQGTQVTVSS,polyreactivity (PSR sort gate),low polyreactivity
QVHIVESGGGLVQAGGSLRLSCAASGSNFTLYTMGWYRQAPGKERELVAAISTSGGRTYYADSVKGRFTISRDNAKNTVYLQMNSLKPEDTAVYYCNAGYWYYGQDDYWGQGTQVTVSS,polyreactivity (PSR sort gate),high polyreactivity
